Entries after “also recorded” stand apart in the source; their conditions may differ.
How the values were obtained:
[1] = Heme reconstitution of apo wt and mutated RbMPOs (tryptophan fluorescence quenching); assay type: binding; conditions: 1 μM enzyme; for k2: heme reconstitution of apo enzyme, 50 mM sodium phosphate pH7.5, 25° C.
Procedure: Sample dilutions were performed in a 50 mM pH7.5 sodium phosphate buffer.

[2] = Steady-state kinetics by stopped-flow, NaSCN (hypothiocyanate formation, 240 nm); assay type: biochemical; conditions: for substrate specificity: from steady-state NaSCN, NaBr and NaCl ranges
Procedure: (§1) pH- and temperature-dependent studies were carried out for each substrate.
(§2) These temperatures were reached by using a stopped-flow coupled to a cryostat.
(§3) For temperature and pH measurements, RbMPO was set at the same concentration as in the determination of steady state kinetics parameters.

[3] = Steady-state kinetics by stopped-flow, NaBr (Tau-NHBr formation, 289 nm); assay type: biochemical; conditions: 300 nM enzyme, 79 μM H2O2; for kss/[Br^−]: NaBr range, linear (k2)
Procedure: as §1, §2, §3

[4] = Chlorination activity with APF probe, NaCl range; assay type: biochemical; conditions: linear increase of kss, 1 μM RbMPOs, 79 μM H2O2, 10 μM APF
Text: The chlorination activity of myeloperoxidases can be determined using the aminophenyl fluorescein (APF) probe. One can indeed detect the oxidation of APF (non-fluorescent) by HOCl into fluorescein, a fluorescent molecule that is detectable at λex=485 nm and λem=525 nm. According to such test, the fluorescence measured is proportional to the quantity of fluorescein, which itself is proportional to the quantity of HOCl produced by the myeloperoxidase.
Measurements of chlorination activity were herein performed in Corning 384-well clear-bottom (flat-bottom) plates with a reaction volume of 20 μL, in triplicate at 37° C., and in a 50 mM NaPi buffer at pH7.5. […] A 10 to 30 minutes kinetic was performed for each range value and the fluorescence intensity was compared to that of the standard fluorescein range. Thus, the measured fluorescence is proportional to the amount of fluorescein, which in turn is proportional to the amount of HOCl produced by the RbMPOs.
The slopes were measured at the onset of the reaction in order to be in initial velocity. From these values, it was possible to calculate the kss with the following equation: […]
where slopes in FI.pmoles^−1 corresponds to the slope of the fluorescein standard range: 2.95 10^6+1.13 10^5.

Molecule	k2 [1] [M⁻¹ s⁻¹]	activity in presence of SCN^− (NaSCN range), in words ([2]; 300 nM enzyme, 79 μM H2O2)	substrate specificity [2]	k2 ([2]; NaSCN range, linear increase of kss, 300 nM enzyme, 79 μM H2O2) [M⁻¹ s⁻¹]	Kd ([1]; heme reconstitution, saturation of active site by heme, pH7.5, 25° C.) [µM]	activity with Br^− (NaBr range), in words [3]	k2 [4]	kss/[Br^−] [3] [M⁻¹ s⁻¹]
H407A: RbMPO with active site mutation H407A, generated by site-directed mutagenesis (protein) MLFWSKRTRKHPGRKRRRLRSEQLESRQLLAADFGGYRHNIYDAEDVNDDGRVSAIDALLVINAMTSETSRDENVFTDVNGDGRRSALDALRVINRIERGDVFPIDTSGDEDLNTLLPEMPSEVRSIDGSGNNPNDHLWGSVGQRLIRMAPAAYGDGISTLAGANRPSAREVSNVLSAMNTSQVLNDRGLSAFVYVWGQFIDHDLGLTESDEHGEAIDISVPEGDLWFDPMGSGEAVIPMTRTPIADGTGTSVGNPAQQFNQITAFIDGSMVYGSDAATAERLRTFAGGRLAISDNGLLPMDESGMVIAGDVRASENVGLTAIQTLFVREHNRLADEIFAADPEATDEEIYQRARLVVASLIQSITYNEFLPALLGQRAMDSYRGYDASVNPGIANEFSTAAFRLGASTLRDEVGFMSNDGRESKDEMELKDAFFHASMLEETGIDSLLKFDASVQAQEIDLAVVDSLRNFLFGPPGAGGLDLVAMNIQRGRDHGLSDYNTTRQAYGLDRVETFDQITGDVELQQKLASLYGTVDNIDLWVGLMAEDHQHDASVGELTGLIIADQFQRTRDGDRFFYKNVLTDSEVESIERSTLADLIERNTSVDGLQENVFFMQVELRGRVILASSIPPNTMPSEVREEEIRGVSGMAIELIDASGKLVDSTVSDQHGNYRFRALSETGDYQVRLSESGEAMDVLVAHGAERIRGLDFIVLA	1320 ± 18.9	not active; also recorded: scatter plot	greater specificity for Br^− than for SCN^−					
N317M: RbMPO with active site mutation N317M, generated by site-directed mutagenesis (protein) MLFWSKRTRKHPGRKRRRLRSEQLESRQLLAADFGGYRHNIYDAEDVNDDGRVSAIDALLVINAMTSETSRDENVFTDVNGDGRRSALDALRVINRIERGDVFPIDTSGDEDLNTLLPEMPSEVRSIDGSGNNPNDHLWGSVGQRLIRMAPAAYGDGISTLAGANRPSAREVSNVLSAMNTSQVLNDRGLSAFVYVWGQFIDHDLGLTESDEHGEAIDISVPEGDLWFDPMGSGEAVIPMTRTPIADGTGTSVGNPAQQFNQITAFIDGSMVYGSDAATAERLRTFAGGRLAISDNGLLPMDESGMVIAGDVRASEMVGLTAIQTLFVREHNRLADEIFAADPEATDEEIYQRARLVVASLIQSITYNEFLPALLGQRAMDSYRGYDASVNPGIANEFSTAAFRLGHSTLRDEVGFMSNDGRESKDEMELKDAFFHASMLEETGIDSLLKFDASVQAQEIDLAVVDSLRNFLFGPPGAGGLDLVAMNIQRGRDHGLSDYNTTRQAYGLDRVETFDQITGDVELQQKLASLYGTVDNIDLWVGLMAEDHQHDASVGELTGLIIADQFQRTRDGDRFFYKNVLTDSEVESIERSTLADLIERNTSVDGLQENVFFMQVELRGRVILASSIPPNTMPSEVREEEIRGVSGMAIELIDASGKLVDSTVSDQHGNYRFRALSETGDYQVRLSESGEAMDVLVAHGAERIRGLDFIVLA			higher specificity for SCN^− than Br^−	1074 ± 53				
D202A: RbMPO with active site mutation D202A, generated by site-directed mutagenesis (protein) MLFWSKRTRKHPGRKRRRLRSEQLESRQLLAADFGGYRHNIYDAEDVNDDGRVSAIDALLVINAMTSETSRDENVFTDVNGDGRRSALDALRVINRIERGDVFPIDTSGDEDLNTLLPEMPSEVRSIDGSGNNPNDHLWGSVGQRLIRMAPAAYGDGISTLAGANRPSAREVSNVLSAMNTSQVLNDRGLSAFVYVWGQFIAHDLGLTESDEHGEAIDISVPEGDLWFDPMGSGEAVIPMTRTPIADGTGTSVGNPAQQFNQITAFIDGSMVYGSDAATAERLRTFAGGRLAISDNGLLPMDESGMVIAGDVRASENVGLTAIQTLFVREHNRLADEIFAADPEATDEEIYQRARLVVASLIQSITYNEFLPALLGQRAMDSYRGYDASVNPGIANEFSTAAFRLGHSTLRDEVGFMSNDGRESKDEMELKDAFFHASMLEETGIDSLLKFDASVQAQEIDLAVVDSLRNFLFGPPGAGGLDLVAMNIQRGRDHGLSDYNTTRQAYGLDRVETFDQITGDVELQQKLASLYGTVDNIDLWVGLMAEDHQHDASVGELTGLIIADQFQRTRDGDRFFYKNVLTDSEVESIERSTLADLIERNTSVDGLQENVFFMQVELRGRVILASSIPPNTMPSEVREEEIRGVSGMAIELIDASGKLVDSTVSDQHGNYRFRALSETGDYQVRLSESGEAMDVLVAHGAERIRGLDFIVLA			higher specificity for SCN^− than Br^−					
D202A, E316A: double mutant of RbMPO with active site mutations D202A and E316A (protein) MLFWSKRTRKHPGRKRRRLRSEQLESRQLLAADFGGYRHNIYDAEDVNDDGRVSAIDALLVINAMTSETSRDENVFTDVNGDGRRSALDALRVINRIERGDVFPIDTSGDEDLNTLLPEMPSEVRSIDGSGNNPNDHLWGSVGQRLIRMAPAAYGDGISTLAGANRPSAREVSNVLSAMNTSQVLNDRGLSAFVYVWGQFIAHDLGLTESDEHGEAIDISVPEGDLWFDPMGSGEAVIPMTRTPIADGTGTSVGNPAQQFNQITAFIDGSMVYGSDAATAERLRTFAGGRLAISDNGLLPMDESGMVIAGDVRASANVGLTAIQTLFVREHNRLADEIFAADPEATDEEIYQRARLVVASLIQSITYNEFLPALLGQRAMDSYRGYDASVNPGIANEFSTAAFRLGHSTLRDEVGFMSNDGRESKDEMELKDAFFHASMLEETGIDSLLKFDASVQAQEIDLAVVDSLRNFLFGPPGAGGLDLVAMNIQRGRDHGLSDYNTTRQAYGLDRVETFDQITGDVELQQKLASLYGTVDNIDLWVGLMAEDHQHDASVGELTGLIIADQFQRTRDGDRFFYKNVLTDSEVESIERSTLADLIERNTSVDGLQENVFFMQVELRGRVILASSIPPNTMPSEVREEEIRGVSGMAIELIDASGKLVDSTVSDQHGNYRFRALSETGDYQVRLSESGEAMDVLVAHGAERIRGLDFIVLA			active only for SCN^−		10.9	lack of RbMPO activity		
H203A: RbMPO with active site mutation H203A, generated by site-directed mutagenesis (protein) MLFWSKRTRKHPGRKRRRLRSEQLESRQLLAADFGGYRHNIYDAEDVNDDGRVSAIDALLVINAMTSETSRDENVFTDVNGDGRRSALDALRVINRIERGDVFPIDTSGDEDLNTLLPEMPSEVRSIDGSGNNPNDHLWGSVGQRLIRMAPAAYGDGISTLAGANRPSAREVSNVLSAMNTSQVLNDRGLSAFVYVWGQFIDADLGLTESDEHGEAIDISVPEGDLWFDPMGSGEAVIPMTRTPIADGTGTSVGNPAQQFNQITAFIDGSMVYGSDAATAERLRTFAGGRLAISDNGLLPMDESGMVIAGDVRASENVGLTAIQTLFVREHNRLADEIFAADPEATDEEIYQRARLVVASLIQSITYNEFLPALLGQRAMDSYRGYDASVNPGIANEFSTAAFRLGHSTLRDEVGFMSNDGRESKDEMELKDAFFHASMLEETGIDSLLKFDASVQAQEIDLAVVDSLRNFLFGPPGAGGLDLVAMNIQRGRDHGLSDYNTTRQAYGLDRVETFDQITGDVELQQKLASLYGTVDNIDLWVGLMAEDHQHDASVGELTGLIIADQFQRTRDGDRFFYKNVLTDSEVESIERSTLADLIERNTSVDGLQENVFFMQVELRGRVILASSIPPNTMPSEVREEEIRGVSGMAIELIDASGKLVDSTVSDQHGNYRFRALSETGDYQVRLSESGEAMDVLVAHGAERIRGLDFIVLA	1840 ± 167		higher specificity for SCN^− than Br^−				no catalytic constant could be determined; also recorded: scatter plot	73.94 ± 15.07
Q199A: RbMPO with active site mutation Q199A, generated by site-directed mutagenesis (protein) MLFWSKRTRKHPGRKRRRLRSEQLESRQLLAADFGGYRHNIYDAEDVNDDGRVSAIDALLVINAMTSETSRDENVFTDVNGDGRRSALDALRVINRIERGDVFPIDTSGDEDLNTLLPEMPSEVRSIDGSGNNPNDHLWGSVGQRLIRMAPAAYGDGISTLAGANRPSAREVSNVLSAMNTSQVLNDRGLSAFVYVWGAFIDHDLGLTESDEHGEAIDISVPEGDLWFDPMGSGEAVIPMTRTPIADGTGTSVGNPAQQFNQITAFIDGSMVYGSDAATAERLRTFAGGRLAISDNGLLPMDESGMVIAGDVRASENVGLTAIQTLFVREHNRLADEIFAADPEATDEEIYQRARLVVASLIQSITYNEFLPALLGQRAMDSYRGYDASVNPGIANEFSTAAFRLGHSTLRDEVGFMSNDGRESKDEMELKDAFFHASMLEETGIDSLLKFDASVQAQEIDLAVVDSLRNFLFGPPGAGGLDLVAMNIQRGRDHGLSDYNTTRQAYGLDRVETFDQITGDVELQQKLASLYGTVDNIDLWVGLMAEDHQHDASVGELTGLIIADQFQRTRDGDRFFYKNVLTDSEVESIERSTLADLIERNTSVDGLQENVFFMQVELRGRVILASSIPPNTMPSEVREEEIRGVSGMAIELIDASGKLVDSTVSDQHGNYRFRALSETGDYQVRLSESGEAMDVLVAHGAERIRGLDFIVLA	1720 ± 133	not active	only active for Br					78.19 ± 22.00

Source: US20250297232A1, “BACTERIAL MYELOPEROXIDASE-CATALASE AND APPLICATIONS THEREOF” (priority 2022, published 2025)
